Laboratory results reported in the Human Domainome abundance scans (Beltran et al. 2025).
± gives the uncertainty stated by the source.

B1: Membrane-associated guanylate kinase, WW and PDZ domain-containing protein 2, residues 601 to 682; numbered along this chain, Q86UL8 (parent)
chain: AELMTLTIVKGAQGFGFTIADSPTGQRVKQILDIQGCPGLCEGDLIVEINQQNVQNLSHTEVVDILKDCPIGSETSLIIHRG

Variants of: B1
Experiment: abundance fitness (aPCA) (normalised: wild type 0, dead -1); higher = more abundant; growth selection in yeast, the domain comes from the species named
Settings: Homo sapiens

Abundance fitness: each site, then its substitutions
T24: N -0.004 ± 0.099; A -0.013 ± 0.037; C -0.03 ± 0.066; Y -0.021 ± 0.075; M -0.031 ± 0.057; G 0.041 ± 0.035; D -0.037 ± 0.05; P -0.017 ± 0.041; F -0.053 ± 0.087; H 0.02 ± 0.071; L -0.023 ± 0.041; W -0.076 ± 0.06; R 0.007 ± 0.038; Q -0.035 ± 0.044; V -0.08 ± 0.04; E 0.024 ± 0.046
G36: A -0.241 ± 0.24
D33: N -0.043 ± 0.082; W -0.117 ± 0.066; H -0.088 ± 0.071; Y 0.049 ± 0.1; V -0.152 ± 0.052; Q 0.024 ± 0.076; C -0.092 ± 0.08; I -0.243 ± 0.11; K -0.192 ± 0.084; T -0.02 ± 0.059; M -0.124 ± 0.06; P -0.147 ± 0.051; E -0.089 ± 0.054; R -0.061 ± 0.041; G -0.11 ± 0.04
Q35: S -0.005 ± 0.13; Y -0.066 ± 0.24; A 0.086 ± 0.15; T 0.209 ± 0.35; L -0.115 ± 0.094; P -0.243 ± 0.16; R 0.021 ± 0.12; K -0.278 ± 0.24; H 0.08 ± 0.29; G 0.052 ± 0.11; V -0.064 ± 0.17
G25: R -0.356 ± 0.04; M -0.191 ± 0.062; D -0.766 ± 0.23; W -0.531 ± 0.069; P -0.371 ± 0.075; T -0.318 ± 0.062; E -0.127 ± 0.061; A -0.046 ± 0.041; F -0.314 ± 0.19; Y -0.177 ± 0.1; L -0.538 ± 0.056; V -0.514 ± 0.051; S -0.185 ± 0.051; C -0.17 ± 0.08; K -0.267 ± 0.089; Q -0.255 ± 0.058; N -0.162 ± 0.079
G16: F -0.101 ± 0.063; L -0.014 ± 0.033; N 0.018 ± 0.051; I -0.268 ± 0.052; S -0.027 ± 0.035; M -0.007 ± 0.039; Q -0.085 ± 0.04; C -0.002 ± 0.047; T -0.048 ± 0.037; W -0.045 ± 0.037; A -0.144 ± 0.038; D 0.071 ± 0.049; E -0.059 ± 0.043; H -0.044 ± 0.058; K -0.029 ± 0.035; Y -0.155 ± 0.053; P -0.006 ± 0.043; R -0.051 ± 0.028
P23: I -0.17 ± 0.097; Q -0.029 ± 0.056; L -0.018 ± 0.042; W -0.03 ± 0.053; D -0.129 ± 0.1; H -0.303 ± 0.16; G -0.09 ± 0.039; E -0.022 ± 0.043; V -0.297 ± 0.04; C 0.021 ± 0.084; R -0.03 ± 0.038; N -0.045 ± 0.11; F -0.106 ± 0.091; Y -0.16 ± 0.13; K 0.023 ± 0.049; T -0.058 ± 0.053; M -0.072 ± 0.068
R27: S -0.158 ± 0.096; I 0.047 ± 0.3; T 0.021 ± 0.11; W -0.054 ± 0.18; M -0.066 ± 0.29; H -0.089 ± 0.21; E -0.173 ± 0.1; P -0.382 ± 0.18; L -0.007 ± 0.12; A -0.042 ± 0.17; C -0.589 ± 0.47; G -0.107 ± 0.1; D -0.42 ± 0.3; V 0.047 ± 0.12
D21: L 0.084 ± 0.11; Y -0.099 ± 0.15; F -0.208 ± 0.33; N -0.105 ± 0.45; H -0.068 ± 0.45; W -0.111 ± 0.065; V -0.064 ± 0.078; E -0.023 ± 0.12; C -0.14 ± 0.1; S -0.054 ± 0.083; P -0.048 ± 0.14; M 0.079 ± 0.24; A -0.126 ± 0.087; G -0.082 ± 0.081; K -0.039 ± 0.2
Q26: P 0.045 ± 0.088; K 0.038 ± 0.06; Y 0.316 ± 0.4; S -0.071 ± 0.05; D -0.176 ± 0.13; V -0.025 ± 0.042; I -0.111 ± 0.12; W -0.105 ± 0.051; R -0.032 ± 0.039; H -0.124 ± 0.14; N -0.139 ± 0.12; T -0.007 ± 0.055; E 0.016 ± 0.055; A 0.063 ± 0.047; L -0.028 ± 0.041; F -0.194 ± 0.23; G -0.032 ± 0.04; C -0.039 ± 0.13
K29: L -0.212 ± 0.099; D 0.108 ± 0.28; G -0.004 ± 0.087; S 0.039 ± 0.2; Q -0.053 ± 0.13; H 0.181 ± 0.33; I -0.395 ± 0.29; A -0.095 ± 0.1; R -0.047 ± 0.062; C -0.091 ± 0.13; E 0.084 ± 0.15; V -0.122 ± 0.086
T18: L 0.01 ± 0.038; S -0.013 ± 0.038; D -0.011 ± 0.064; V -0.024 ± 0.033; W -0.075 ± 0.04; E 0 ± 0.039; G -0.068 ± 0.032; C -0.044 ± 0.049; N 0.001 ± 0.086; M -0.061 ± 0.052; Q -0.066 ± 0.048; Y -0.032 ± 0.093; K 0.044 ± 0.06; H -0.134 ± 0.073; P -1.1 ± 0.12; I 0.008 ± 0.065; F -0.149 ± 0.088
I31: A -0.101 ± 0.31; V -0.035 ± 0.084; S -0.251 ± 0.079; L 0.011 ± 0.083; Q -0.091 ± 0.22; C -0.185 ± 0.093; M -0.084 ± 0.12; R -0.283 ± 0.081; N -0.219 ± 0.21; T -0.097 ± 0.089; G -0.11 ± 0.084; H -0.316 ± 0.31; Y -0.221 ± 0.14; P -0.181 ± 0.28; W -0.665 ± 0.15; K 0.197 ± 0.41
I19: A -0.542 ± 0.19; T -0.169 ± 0.12; P -0.023 ± 0.36; W -0.203 ± 0.1; R -1.16 ± 0.25; S -0.634 ± 0.17; H 0.134 ± 0.13; G -1.31 ± 0.28; E -0.872 ± 0.4; C -0.335 ± 0.38; Q -0.708 ± 0.32; L -0.012 ± 0.085; Y -0.148 ± 0.12
V28: P -1.09 ± 0.37; A -0.305 ± 0.22; S -0.849 ± 0.2; E -1.03 ± 0.27; C -0.077 ± 0.14; Q -0.718 ± 0.38; I 0.144 ± 0.23; G -0.655 ± 0.1; L -0.215 ± 0.095; N -0.564 ± 0.29; T -0.538 ± 0.34
G14: I -0.168 ± 0.039; L -0.105 ± 0.032; F -0.21 ± 0.042; R -0.093 ± 0.033; Q -0.052 ± 0.051; Y -0.071 ± 0.04; H -0.03 ± 0.041; T -0.02 ± 0.037; M -0.089 ± 0.046; E -0.016 ± 0.053; N 0.025 ± 0.041
L32: K -0.295 ± 0.12; N -0.124 ± 0.29; T -0.023 ± 0.12; I -0.057 ± 0.13; Q -0.212 ± 0.25; Y -0.16 ± 0.3; D 0.022 ± 0.16; C -0.197 ± 0.18; W -0.158 ± 0.22; V 0.052 ± 0.12; R -0.069 ± 0.082; A -0.218 ± 0.27; G 0.021 ± 0.059; M 0.035 ± 0.24; S 0.024 ± 0.09; P -0.119 ± 0.13
I34: P -0.072 ± 0.068; G -0.021 ± 0.05; D -0.036 ± 0.08; K -0.007 ± 0.076; Q -0.031 ± 0.081; N 0.034 ± 0.13; M -0.061 ± 0.066; Y 0.013 ± 0.093; W -0.101 ± 0.063; C -0.076 ± 0.086; F -0.066 ± 0.17; R -0.092 ± 0.043; A -0.026 ± 0.053; L 0.007 ± 0.064; E -0.045 ± 0.07; S -0.017 ± 0.063; H -0.153 ± 0.092; V 0.017 ± 0.059; T -0.072 ± 0.067
Q30: K 0.363 ± 0.34; N -0.302 ± 0.48; M 0.098 ± 0.12; A -0.052 ± 0.17; T -0.117 ± 0.19; D -0.022 ± 0.2; S -0.076 ± 0.098; E -0.188 ± 0.14; W 0.04 ± 0.27; L 0.066 ± 0.1; R -0.111 ± 0.094; Y -0.064 ± 0.15; F 0.234 ± 0.24; P -0.103 ± 0.11; H -0.062 ± 0.15; V -0.102 ± 0.07; C -0.205 ± 0.16
S22: N -0.39 ± 0.17; Q 0.023 ± 0.1; W -0.056 ± 0.15; E -0.114 ± 0.097; C -0.117 ± 0.2; Y -0.04 ± 0.23; K 0.062 ± 0.2; A 0.075 ± 0.1; P -0.671 ± 0.19; L -0.049 ± 0.085; F -0.105 ± 0.094; G 0.03 ± 0.061; R 0.03 ± 0.13; V -0.063 ± 0.13; T -0.076 ± 0.11; D 0.048 ± 0.27
F15: V -0.003 ± 0.033; E -0.141 ± 0.044; D -0.118 ± 0.052; S -0.143 ± 0.031; M 0.039 ± 0.044; C -0.111 ± 0.042; G -0.221 ± 0.036; N -0.144 ± 0.049; A -0.179 ± 0.045; P -0.063 ± 0.041; Q -0.062 ± 0.039; W -0.002 ± 0.039; R -0.266 ± 0.034; L 0.004 ± 0.03; Y -0.048 ± 0.064; K -0.322 ± 0.044
F17: S -1.29 ± 0.12; N -1.36 ± 0.36; L -0.124 ± 0.032; H -0.881 ± 0.16; C -0.303 ± 0.047; W -0.022 ± 0.039; G -1.11 ± 0.089; I -0.057 ± 0.057; E -0.75 ± 0.072; M -0.105 ± 0.044; K -0.978 ± 0.13; Y -0.277 ± 0.061; T -1.2 ± 0.13; D -1.18 ± 0.28; P -1.04 ± 0.1; R -1.12 ± 0.091; A -0.697 ± 0.05; Q -1.07 ± 0.23
A20: K -0.026 ± 0.18; V -0.11 ± 0.085; R -0.172 ± 0.081; G -0.069 ± 0.1; M 0.228 ± 0.45; N -0.142 ± 0.17; Q 0.217 ± 0.28; E -0.147 ± 0.16; I 0.203 ± 0.27; S 0.003 ± 0.1
